According to the supplement of paper PMC9112550, “Optimization of the antimicrobial peptide Bac7 by deep mutational scanning” (BMC Biology, 2022):

System: Escherichia coli TOP10
Assay: shrunken log2 fold change of peptide-encoding DNA abundance (4.5 h post-induction vs induction); higher = less antimicrobial activity (less host growth inhibition)
Conditions: time post-induction: 4.5 h; library: site-saturation at positions 5, 18, 19, 20
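Further: peptides expressed intracellularly from a pBAD plasmid library in pooled LB shake-flask culture, induced with 0.3% L-arabinose, DNA abundance read by NGS, three biological replicates, DESeq2 with apeglm shrinkage.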

| Sequence | shrunken log2 fold change |
| --- | --- |
| RRIRWRPPRLPRPRPRPTYLPRP | 0.0592 |
| RRIRWRPPRLPRPRPRPVDPPRP | 0.158 |
| RRIRWRPPRLPRPRPRPVEVPRP | -0.0825 |
| RRIRWRPPRLPRPRPRPVFVPRP | -0.0738 |
| RRIRWRPPRLPRPRPRPVKKPRP | 0.29 |
| RRIRWRPPRLPRPRPRPVKPPRP | 0.539 |
| RRIRWRPPRLPRPRPRPVNVPRP | -0.328 |
| RRIRWRPPRLPRPRPRPVPRPRP | 0.549 |
| RRIRWRPPRLPRPRPRPVQEPRP | 0.342 |
| RRIRWRPPRLPRPRPRPVRHPRP | 0.245 |
| RRIRWRPPRLPRPRPRPVRNPRP | 0.432 |
| RRIRWRPPRLPRPRPRPVSNPRP | 0.0778 |
| RRIRWRPPRLPRPRPRPVTPPRP | 0.666 |
| RRIRWRPPRLPRPRPRPVTWPRP | -0.017 |
| RRIRWRPPRLPRPRPRPVVSPRP | 0.0155 |
| RRIRWRPPRLPRPRPRPWCLPRP | -0.334 |
| RRIRWRPPRLPRPRPRPWCRPRP | -0.000362 |
| RRIRWRPPRLPRPRPRPWEEPRP | 0.0688 |
| RRIRWRPPRLPRPRPRPWERPRP | 0.142 |
| RRIRWRPPRLPRPRPRPWFNPRP | -0.248 |
| RRIRWRPPRLPRPRPRPWFQPRP | -0.125 |
| RRIRWRPPRLPRPRPRPWGMPRP | -0.246 |
| RRIRWRPPRLPRPRPRPWGNPRP | 0.149 |
| RRIRWRPPRLPRPRPRPWGVPRP | 0.132 |
| RRIRWRPPRLPRPRPRPWHLPRP | -0.00636 |

| Sequence | shrunken log2 fold change |
| --- | --- |
| RRIRWRPPRLPRPRPRPWLKPRP | 0.0275 |
| RRIRWRPPRLPRPRPRPWLMPRP | 0.116 |
| RRIRWRPPRLPRPRPRPWMLPRP | -0.0694 |
| RRIRWRPPRLPRPRPRPWNWPRP | 0.173 |
| RRIRWRPPRLPRPRPRPWPKPRP | 0.322 |
| RRIRWRPPRLPRPRPRPWQQPRP | -0.01 |
| RRIRWRPPRLPRPRPRPWSMPRP | -0.269 |
| RRIRWRPPRLPRPRPRPWTEPRP | -0.301 |
| RRIRWRPPRLPRPRPRPWWAPRP | -0.194 |
| RRIRWRPPRLPRPRPRPYASPRP | -0.121 |
| RRIRWRPPRLPRPRPRPYEHPRP | -0.12 |
| RRIRWRPPRLPRPRPRPYFTPRP | -0.624 |
| RRIRWRPPRLPRPRPRPYGDPRP | -0.113 |
| RRIRWRPPRLPRPRPRPYHDPRP | -0.868 |
| RRIRWRPPRLPRPRPRPYHNPRP | -0.296 |
| RRIRWRPPRLPRPRPRPYHVPRP | -0.141 |
| RRIRWRPPRLPRPRPRPYIEPRP | -0.629 |
| RRIRWRPPRLPRPRPRPYMTPRP | -0.877 |
| RRIRWRPPRLPRPRPRPYPAPRP | -0.0239 |
| RRIRWRPPRLPRPRPRPYPNPRP | -0.58 |
| RRIRWRPPRLPRPRPRPYPWPRP | -0.156 |
| RRIRWRPPRLPRPRPRPYQIPRP | 0.0326 |
| RRIRWRPPRLPRPRPRPYQYPRP | -0.0756 |
| RRIRWRPPRLPRPRPRPYRCPRP | 0.0623 |
| RRIRWRPPRLPRPRPRPYRRPRP | -0.0183 |

| Sequence | shrunken log2 fold change |
| --- | --- |
| RRIRWRPPRLPRPRPRPYTWPRP | -0.397 |
| RRIRWRPPRLPRPRPRPYVYPRP | 0.0229 |
| RRIRWRPPRLPRPRPRPYYGPRP | -0.0686 |
| RRIRWRPPRLPRPRPRPYYPPRP | -1.09 |
| RRIRYRPPRLPRPRPRPAAEPRP | 0.22 |
| RRIRYRPPRLPRPRPRPAANPRP | -0.0861 |
| RRIRYRPPRLPRPRPRPAAQPRP | 0.466 |
| RRIRYRPPRLPRPRPRPACNPRP | -0.238 |
| RRIRYRPPRLPRPRPRPACQPRP | -0.142 |
| RRIRYRPPRLPRPRPRPAEKPRP | -0.0964 |
| RRIRYRPPRLPRPRPRPAFEPRP | -0.0224 |
| RRIRYRPPRLPRPRPRPAGQPRP | 0.00356 |
| RRIRYRPPRLPRPRPRPAHFPRP | 0.0784 |
| RRIRYRPPRLPRPRPRPAHQPRP | 0.126 |
| RRIRYRPPRLPRPRPRPAITPRP | -0.933 |
| RRIRYRPPRLPRPRPRPAKPPRP | -0.0319 |
| RRIRYRPPRLPRPRPRPALWPRP | -0.0105 |
| RRIRYRPPRLPRPRPRPAMDPRP | -0.256 |
| RRIRYRPPRLPRPRPRPAMHPRP | -0.045 |
| RRIRYRPPRLPRPRPRPAMRPRP | 0.372 |
| RRIRYRPPRLPRPRPRPAMWPRP | -0.0439 |
| RRIRYRPPRLPRPRPRPANLPRP | -1.19 |
| RRIRYRPPRLPRPRPRPANNPRP | -0.45 |
| RRIRYRPPRLPRPRPRPAPGPRP | 0.391 |
| RRIRYRPPRLPRPRPRPAQAPRP | 0.0486 |

| Sequence | shrunken log2 fold change |
| --- | --- |
| RRIRYRPPRLPRPRPRPAQHPRP | -0.515 |
| RRIRYRPPRLPRPRPRPASFPRP | -0.138 |
| RRIRYRPPRLPRPRPRPASPPRP | -0.161 |
| RRIRYRPPRLPRPRPRPATAPRP | 0.132 |
| RRIRYRPPRLPRPRPRPATTPRP | -0.415 |
| RRIRYRPPRLPRPRPRPAWGPRP | 0.0852 |
| RRIRYRPPRLPRPRPRPCCLPRP | -0.203 |
| RRIRYRPPRLPRPRPRPCCSPRP | -0.141 |
| RRIRYRPPRLPRPRPRPCDWPRP | -0.0122 |
| RRIRYRPPRLPRPRPRPCELPRP | -0.0555 |
| RRIRYRPPRLPRPRPRPCETPRP | 0.00591 |
| RRIRYRPPRLPRPRPRPCHLPRP | -0.019 |
| RRIRYRPPRLPRPRPRPCKIPRP | -0.116 |
| RRIRYRPPRLPRPRPRPCMAPRP | -0.117 |
| RRIRYRPPRLPRPRPRPCMHPRP | -0.351 |
| RRIRYRPPRLPRPRPRPCNHPRP | -0.213 |
| RRIRYRPPRLPRPRPRPCNLPRP | -0.958 |
| RRIRYRPPRLPRPRPRPCQAPRP | -0.269 |
| RRIRYRPPRLPRPRPRPCQGPRP | -0.0126 |
| RRIRYRPPRLPRPRPRPCQIPRP | -0.00804 |
| RRIRYRPPRLPRPRPRPCQMPRP | -0.255 |
| RRIRYRPPRLPRPRPRPCQNPRP | 0.0275 |
| RRIRYRPPRLPRPRPRPCRCPRP | -0.0894 |
| RRIRYRPPRLPRPRPRPCRQPRP | -0.442 |
| RRIRYRPPRLPRPRPRPCTLPRP | 0.0191 |

| Sequence | shrunken log2 fold change |
| --- | --- |
| RRIRYRPPRLPRPRPRPCTMPRP | -0.347 |
| RRIRYRPPRLPRPRPRPCVPPRP | -0.0398 |
| RRIRYRPPRLPRPRPRPCYMPRP | 0.0232 |
| RRIRYRPPRLPRPRPRPCYRPRP | -0.172 |
| RRIRYRPPRLPRPRPRPDCFPRP | -0.0906 |
| RRIRYRPPRLPRPRPRPDCNPRP | -0.871 |
| RRIRYRPPRLPRPRPRPDDAPRP | -0.199 |
| RRIRYRPPRLPRPRPRPDERPRP | 0.0108 |
| RRIRYRPPRLPRPRPRPDFCPRP | -0.228 |
| RRIRYRPPRLPRPRPRPDFEPRP | -0.0141 |
| RRIRYRPPRLPRPRPRPDFIPRP | -0.348 |
| RRIRYRPPRLPRPRPRPDFYPRP | -1.15 |
| RRIRYRPPRLPRPRPRPDGAPRP | -0.0116 |
| RRIRYRPPRLPRPRPRPDIIPRP | -0.609 |
| RRIRYRPPRLPRPRPRPDLLPRP | -0.0601 |
| RRIRYRPPRLPRPRPRPDNQPRP | -0.644 |
| RRIRYRPPRLPRPRPRPDPPPRP | 0.0918 |
| RRIRYRPPRLPRPRPRPDQLPRP | -0.122 |
| RRIRYRPPRLPRPRPRPDRNPRP | -0.018 |
| RRIRYRPPRLPRPRPRPDTLPRP | -0.195 |
| RRIRYRPPRLPRPRPRPDTTPRP | 0.0425 |
| RRIRYRPPRLPRPRPRPDVEPRP | -0.00174 |
| RRIRYRPPRLPRPRPRPDWMPRP | 0.0748 |
| RRIRYRPPRLPRPRPRPEAQPRP | 0.151 |
| RRIRYRPPRLPRPRPRPECHPRP | 0.0154 |

| Sequence | shrunken log2 fold change |
| --- | --- |
| RRIRYRPPRLPRPRPRPECLPRP | -0.171 |
| RRIRYRPPRLPRPRPRPECQPRP | 0.0129 |
| RRIRYRPPRLPRPRPRPEDLPRP | -0.00674 |
| RRIRYRPPRLPRPRPRPEFKPRP | 0.0136 |
| RRIRYRPPRLPRPRPRPEFWPRP | -0.0503 |
| RRIRYRPPRLPRPRPRPEGQPRP | 0.0448 |
| RRIRYRPPRLPRPRPRPEIWPRP | 0.212 |
| RRIRYRPPRLPRPRPRPEIYPRP | -0.279 |
| RRIRYRPPRLPRPRPRPEKVPRP | -0.241 |
| RRIRYRPPRLPRPRPRPEMPPRP | -0.0307 |
| RRIRYRPPRLPRPRPRPENLPRP | 0.0949 |
| RRIRYRPPRLPRPRPRPEQLPRP | -0.0122 |
| RRIRYRPPRLPRPRPRPESRPRP | -0.12 |
| RRIRYRPPRLPRPRPRPETMPRP | -0.062 |
| RRIRYRPPRLPRPRPRPEWKPRP | -0.000687 |
| RRIRYRPPRLPRPRPRPEWWPRP | -0.0484 |
| RRIRYRPPRLPRPRPRPEYMPRP | -0.271 |
| RRIRYRPPRLPRPRPRPFAPPRP | -0.386 |
| RRIRYRPPRLPRPRPRPFCYPRP | -0.432 |
| RRIRYRPPRLPRPRPRPFDFPRP | -0.409 |
| RRIRYRPPRLPRPRPRPFFYPRP | -0.614 |
| RRIRYRPPRLPRPRPRPFLAPRP | -0.649 |
| RRIRYRPPRLPRPRPRPFMFPRP | -0.861 |
| RRIRYRPPRLPRPRPRPFMLPRP | -1.19 |
| RRIRYRPPRLPRPRPRPFNPPRP | -0.0161 |
